Kd data for one substance are collected here from paper PMC9913602.

In test [1] the target is HCV NS3/NS4A protease complex (NS3 protease domain residues 1-182 preincubated with synthetic NS4A cofactor peptide) (hepatitis C virus). As to the kind of experiment: single-turnover cleavage kinetics (Western blot of remaining substrate); 0.1 μM IKKε with 5 μM NS3 + 244 μM NS4A peptide, 23 °C, digestion buffer (50 mM HEPES pH 7.8, 0.5 mM EDTA, 25% glycerol, 10 mM DTT, 0.25 M KCl, 0.05 M NaCl, 0.2% CHAPS); Kd estimated by Equation (2) from the constant c of the single-exponential fit, assumed to be unbound kinase.

Test [2] shares this target. The test is described as follows: single-turnover cleavage kinetics (Western blot of remaining substrate); 0.5 μM IKKε with 5 μM NS3 + 244 μM NS4A peptide, 23 °C, digestion buffer (50 mM HEPES pH 7.8, 0.5 mM EDTA, 25% glycerol, 10 mM DTT, 0.25 M KCl, 0.05 M NaCl, 0.2% CHAPS); Kd estimated by Equation (2) from the constant c of the single-exponential fit, assumed to be unbound kinase.

By Kd is commonly meant the equilibrium constant for the complex coming apart. As to “Recombinant human IKKε (Inhibitor of κB kinase ε) (from UniProt Q14164 1-716) (enzyme)”, the Kd is 4.57 µM in test [1] and 1.68 µM in test [2].
